Data from patent US20190359666A1 (ACADEMIA SINICA, published 2019).

T1: nrgbx (UniProt Q02297-6 2-246, limits assumed)
T1 construct: also called neuregulin
T1 sequence (looked up): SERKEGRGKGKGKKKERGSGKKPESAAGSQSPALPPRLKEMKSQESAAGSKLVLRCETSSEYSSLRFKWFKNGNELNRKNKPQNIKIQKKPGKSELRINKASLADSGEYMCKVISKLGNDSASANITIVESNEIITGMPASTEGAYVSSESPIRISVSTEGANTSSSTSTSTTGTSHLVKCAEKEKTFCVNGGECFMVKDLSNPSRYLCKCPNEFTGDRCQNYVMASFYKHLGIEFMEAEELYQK

T2: VEGF-B (UniProt P49765-2 22-188)
T2 sequence (looked up): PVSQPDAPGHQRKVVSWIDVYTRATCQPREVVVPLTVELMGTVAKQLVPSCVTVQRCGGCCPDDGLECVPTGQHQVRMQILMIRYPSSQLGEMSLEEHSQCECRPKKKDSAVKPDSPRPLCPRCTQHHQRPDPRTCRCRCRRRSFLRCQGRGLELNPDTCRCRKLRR

T3: PIGF (UniProt P49763-2 21-149)
T3 construct: also called placental growth factor
T3 sequence (looked up): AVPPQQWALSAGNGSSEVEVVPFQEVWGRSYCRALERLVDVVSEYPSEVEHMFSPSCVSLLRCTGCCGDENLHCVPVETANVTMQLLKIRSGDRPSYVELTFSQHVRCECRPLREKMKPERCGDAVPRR

B1: IGFBP3-Fc-1 (Fc fusion)
chain: GASSAGLGPVVRCEPCDARALAQCAPPPAVCAELVREPGCGCCLTCALSEGQPCGIYTERCGSGLRCQPSPDEARPLQALLDGRGLCVNASAVSKGHAKDSQRYKVDYESQSTDTQNFSSESKRETEYGPCRREMEDTLNHLKFLNVLSPRGVHIPNCDKKGFYKKKQCRPSKGRKRGFCWCVDKYGQPLPGYTTKGKEDVHCYSMQSKVECPPCPAPPVAGPSVFLFPPKPKDQLMISRTPEVTCVVVDVSHEDPEVKFNWYVDGVEVHNAKTKPREEQYNSTYRVVSVLTVLHQDWLNGKEYKCKVSNKGLPSSIEKTISKAKGQPREPQVYTLPPSREEMTKNQVSLTCLVKGFYPSDIAVEWESNGQPENNYKTTPPVLDSDGSFFLYSKLTVDKSRWQQGNVFSCSVMHEGLHNHYTQKSLSLSPGK
notes: IGFBP3 with IGFBP3 linker deletion 1 (55 amino acids deleted from the linker region), fused to Fc; dimeric; also called h3t33fc; his3t33fc
B2: IGFBP3-Fc-VEGF-1 (Fc fusion)
chain: GASSAGLGPVVRCEPCDARALAQCAPPPAVCAELVREPGCGCCLTCALSEGQPCGIYTERCGSGLRCQPSPDEARPLQALLDGRGLCVNASAVSKGHAKDSQRYKVDYESQSTDTQNFSSESKRETEYGPCRREMEDTLNHLKFLNVLSPRGVHIPNCDKKGFYKKKQCRPSKGRKRGFCWCVDKYGQPLPGYTTKGKEDVHCYSMQSKAPPAPGNASESEEDRSAGIYIFISDTGRPFVEMYSEIPEIIHMTEGRELVIPCRVTSPNITVTLKKFPLDTLIPDGKRIIWDSRKGFIISNATYKEIGLLTCEATVNGHLYKTNYLTHRQGYRIYDVVLSPSHGIELSVGEKLVLNCTARTELNVGIDFNWEYPSSKHQHKKLVNRDLKTQSGSEMKKFLSTLTIDGVTRSDQGLYTCAASSGLMTKKNSTFVRVHEKVECPPCPAPPVAGPSVFLFPPKPKDQLMISRTPEVTCVVVDVSHEDPEVKFNWYVDGVEVHNAKTKPREEQYNSTYRVVSVLTVLHQDWLNGKEYKCKVSNKGLPSSIEKTISKAKGQPREPQVYTLPPSREEMTKNQVSLTCLVKGFYPSDIAVEWESNGQPENNYKTTPPVLDSDGSFFLYSKLTVDKSRWQQGNVFSCSVMHEGLHNHYTQKSLSLSPGK
notes: IGFBP3 with linker deletion 1 - gly 3 linker - v1v2 (VEGFR1 domain 2, VEGFR2 domain 3) - Fc; dimeric; also called chimera A; chimeraA

Assays:
[1] = molecular target: T4, IGF-1 (UniProt P05019 49-118); experiment: biotinylated IGF-1 ELISA on Fc-captured chimera, after overnight in MCF-7 conditioned medium at 37 C, against the 4 C PBS control; experiment 4-81
T4 construct: Biotinylated IGF-1 is written as the same molecule; also called biotinylated IGF-1; IGF-1-bio
Method: (§1) Plates were coated with goat anti-human Fc antibody, blocked and then incubated with chimera as in the Fc ELISA. Biotinylated IGF-1 (GroPep) or VEGF-Biotin (R&D Systems VEGF biotinylated with sulfo-NHS-LC-biotin as per instructions (Pierce) was added for 2 hours followed by streptavidin-HRP (Jackson Immunoresearch) for 30 minutes. Chromogenic development with tetramethyl benzidine was performed as described above.
(§2) To test the stability of the present chimeras, some purified chimeras (see, Table 4) were incubated with PBS or a conditioned medium from the MCF-7 cell line overnight at 37° C. and PBS overnight at 4° C. The IGF-1 binding and VEGF binding were measured using the biotinylated IGF-1 and VEGF.

[2] = molecular target: T5, bFGF (UniProt P09038 143-288, limits assumed); experiment: Biacore SPR, immobilised bFGF; experiment 4-79
T5 construct: also called basic fibroblast growth factor
Method: (§3) Biacore binding was performed at David Myszka's laboratory at the University of Utah or at the Genomic Research Center at Academia Sinica. Surfaces of binding protein chimera were made via chemical immobilization on a CM4 chip using standard amine coupling chemistry. […] Excess surface carboxyl activated sites on all four flow cells was blocked using the doubly positively charged species ethylenediamine. Binding experiments (but not immobilizations) in HBS-P (10 mM HEPES pH 7.4, 150 mM NaCl, 0.05% P20), The HBS-P was supplemented with BSA at 0.2 mg/mL, or HBS-P was supplemented with 500 mM NaCl (650 mM NaCl, final concentration). Analytes were also reconstituted in the corresponding buffer. All experiments were performed at 25° C. 1/150 dilutions of phosphoric acid were used to regenerate IGFBP3-Fc surfaces and a sequence of 3 M MgCl₂ followed by 5 M GuCl was used to regenerate surfaces immobilized with growth factor. Dissociation constants reported below used immobilized binding protein unless noted. Differences between binding constants may be expected between growth factor immobilization and chimera immobilization.

[3] = molecular target: T5, bFGF; experiment: Biacore SPR, growth factor immobilised; growth factor immobilised
[4] = molecular target: T1, nrgbx; experiment: Biacore SPR, chimera immobilised
Method: as §3
(§4) We selected his3t33Fc and chimera A for further analysis and examined their growth factor binding by Biacore and ELISA competition assays.

[5] = molecular target: mIGF-2 (UniProt P09535 25-91); experiment: Biacore SPR, chimera immobilised
Method: as §3, §4

[6] = molecular target: T2, VEGF-B; experiment: Biacore SPR, chimera immobilised
Method: as §3, §4

[7] = molecular target: mIGF-1 (UniProt P05017 49-118); experiment: Biacore SPR, chimera immobilised
Method: as §3, §4

[8] = molecular target: IGF-2 (UniProt P01344 25-91); experiment: Biacore SPR, chimera immobilised
Method: as §3, §4

[9] = molecular target: TGF-α (UniProt P01135 40-89); experiment: Biacore SPR, chimera immobilised
Method: as §3, §4

[10] = molecular target: T4, IGF-1; experiment: Biacore SPR, chimera immobilised
Method: as §3, §4

[11] = molecular target: T6, VEGF (UniProt P15692-4 27-191); experiment: Biacore SPR, chimera immobilised
Method: as §3, §4

[12] = molecular target: T4, IGF-1; experiment: biotinylated IGF-1 ELISA on Fc-captured chimera, after overnight in MCF-7 conditioned medium at 37 C, against the 4 C PBS control; experiment 3-192
Method: as §1, §2

[13] = molecular target: T4, IGF-1; experiment: biotinylated IGF-1 ELISA on Fc-captured chimera, after overnight in PBS at 37 C, against the 4 C PBS control; experiment 4-81
Method: as §1, §2

[14] = molecular target: T7, HGF (UniProt P14210 32-728); experiment: Biacore SPR, growth factor immobilised
T7 construct: also called hepatocyte growth factor
Method: as §3, §4

[15] = molecular target: T4, IGF-1; experiment: Biacore SPR; experiment 4-79
Method: as §3

[16] = molecular target: T4, IGF-1; experiment: biotinylated IGF-1 ELISA on Fc-captured chimera, 4 C PBS control (the reference); experiment 3-192
Method: as §1, §2

[17] = molecular target: T4, IGF-1; experiment: biotinylated IGF-1 ELISA on Fc-captured chimera, 4 C PBS control (the reference); experiment 4-81
Method: as §1, §2

[18] = molecular target: T4, IGF-1; experiment: biotinylated IGF-1 ELISA on Fc-captured chimera, after overnight in PBS at 37 C, against the 4 C PBS control; experiment 3-192
Method: as §1, §2

[19] = molecular target: T4, IGF-1; experiment: SPR, in the presence of 3 nM VEGF; presence of 3 nM VEGF
Method: as §3
(§5) To further examine the nature of the VEGF and IGF binding to chimera A, simultaneous binding was examined using the surface plasmon resonance.

[20] = molecular target: T6, VEGF; experiment: Biacore SPR, chimera immobilised; footnote: the kd is very low and difficult to measure
Method: as §3, §4

[21] = molecular target: T3, PIGF; experiment: Biacore SPR, chimera immobilised
Method: as §3, §4

[22] = molecular target: T5, bFGF; experiment: Biacore SPR, growth factor immobilised
Method: as §3, §4

[23] = molecular target: T4, IGF-1; experiment: SPR, without VEGF; absence of VEGF
Method: as §3, §5

[24] = molecular target: T1, nrgbx; experiment: cell-based or functional assay

T4 sequence (P05019 49-118 limits assumed): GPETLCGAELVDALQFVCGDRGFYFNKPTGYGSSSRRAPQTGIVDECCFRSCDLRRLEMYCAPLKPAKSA
T5 sequence (P09038 143-288 limits assumed): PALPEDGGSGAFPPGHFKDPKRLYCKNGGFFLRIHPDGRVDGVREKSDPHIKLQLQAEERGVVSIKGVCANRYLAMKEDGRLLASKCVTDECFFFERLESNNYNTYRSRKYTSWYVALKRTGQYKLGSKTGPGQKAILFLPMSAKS
T6 sequence (P15692 other isoform, or with tags, fused parts or gaps limits assumed): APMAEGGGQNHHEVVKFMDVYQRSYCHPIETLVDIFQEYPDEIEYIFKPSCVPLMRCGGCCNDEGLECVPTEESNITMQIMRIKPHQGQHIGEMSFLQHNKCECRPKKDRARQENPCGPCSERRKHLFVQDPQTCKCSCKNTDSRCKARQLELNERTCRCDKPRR
T7 sequence (P14210 32-728 limits assumed): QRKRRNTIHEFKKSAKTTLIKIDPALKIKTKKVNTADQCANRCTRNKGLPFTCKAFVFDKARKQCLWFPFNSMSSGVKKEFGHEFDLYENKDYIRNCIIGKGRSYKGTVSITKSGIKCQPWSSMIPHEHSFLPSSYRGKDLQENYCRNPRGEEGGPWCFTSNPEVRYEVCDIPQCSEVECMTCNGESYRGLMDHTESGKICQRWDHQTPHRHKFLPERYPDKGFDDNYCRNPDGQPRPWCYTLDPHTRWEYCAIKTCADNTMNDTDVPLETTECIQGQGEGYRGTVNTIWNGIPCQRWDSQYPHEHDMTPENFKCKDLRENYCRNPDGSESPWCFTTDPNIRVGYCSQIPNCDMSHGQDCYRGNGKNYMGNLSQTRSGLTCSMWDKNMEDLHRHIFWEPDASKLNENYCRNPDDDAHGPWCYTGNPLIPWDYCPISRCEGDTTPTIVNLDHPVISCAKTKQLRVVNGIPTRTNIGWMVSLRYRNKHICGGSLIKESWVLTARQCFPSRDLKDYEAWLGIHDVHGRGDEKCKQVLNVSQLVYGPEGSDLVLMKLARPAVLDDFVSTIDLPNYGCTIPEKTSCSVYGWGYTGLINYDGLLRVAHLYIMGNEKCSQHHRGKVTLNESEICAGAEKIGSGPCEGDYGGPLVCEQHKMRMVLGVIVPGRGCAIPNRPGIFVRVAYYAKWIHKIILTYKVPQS
Chain of mIGF-2 (P09535 25-91 limits assumed): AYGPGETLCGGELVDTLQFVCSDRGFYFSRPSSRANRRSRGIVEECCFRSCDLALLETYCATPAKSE
Chain of IGF-2 (P01344 25-91 limits assumed): as the sequence (P09535 25-91 limits assumed) above, with G3R, G5S, S22G, S32A, A35V, N36S counted along it
Chain of TGF-α (P01135 40-89 limits assumed): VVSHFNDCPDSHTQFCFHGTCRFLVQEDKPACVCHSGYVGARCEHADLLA
Chain of mIGF-1 (P05017 49-118 limits assumed): as the sequence (P05019 49-118 limits assumed) above, with D20P, S35I, A67T, S69A counted along it

Binder	Kd [4] [nM]	Kd [5] [nM]	Kd [6] [nM]	Kd [7] [nM]	Kd [8] [nM]	Kd [10] [nM]	IGF-1 binding remaining over controls [12] [%]	Kd [14] [nM]	IGF-1 binding remaining over controls [16] [%]	IGF-1 binding remaining over controls [18] [%]	further results
B1	5.98	0.14	3	0.21	0.174	0.161	54	0.608	100	99	IGF-1 binding remaining over controls [1]: 51%; Kd [2]: 13.3 nM; Kd [3]: 13 nM; binding result [9]: no binding; binding result [11]: no binding; IGF-1 binding remaining over controls [13]: 101%; Kd [15]: 0.575 nM; IGF-1 binding remaining over controls [17]: 100%
B2	4.88	0.0513	0.5	0.137	0.0389	0.0245	77	0.0218	100	94	Kd [19]: 0.2 nM; Kd [20]: 0.0038 nM; Kd [21]: 0.999 nM; Kd [9]: 9250 nM; Kd [22]: 1.92 nM; Kd [23]: 0.4 nM; IC50 in inhibiting neuregulin-induced proliferation [24]: 47 nM
